In this data set the target is N protein WT (SARS-CoV-2, UniProt P0DTC9 1-419). Nature of the data set: mass photometry. As to conditions: protein: recombinant; tags: 6xHis-SUMO tag cleaved by Ulp1; chain copies: 12; hairpin.

B1: SL8 RNA (structured_RNA)
RNA: GAUGGCACUUGUGGCUUAGUAGAAGUUGAAAAAGGCGUUUUGCCUCAACUUGAACAGCCCUAUGUGUUCAUC
In the case of B1, the binding result is on record as “binds”.

Values taken from PMC9529352.
